According to FireProtDB (doi:10.1021/bi052091o):
Several values for one entry are separate records, joined by “and”; a condition that tells them apart may be missing. Equal values may be shown once.

Conditions: Rattus norvegicus; pH 7; 25 °C; Urea; Fluorescence; NaPO4 25 mM; NaCl 75 mM; whole UniProt chain shown

B1: Fatty acid-binding protein, intestinal wild type, P02693 (protein)
chain: MAFDGTWKVDRNENYEKFMEKMGINVVKRKLGAHDNLKLTITQEGNKFTVKESSNFRNIDVVFELGVDFAYSLADGTELTGTWTMEGNKLVGKFKRVDNGKELIAVREISGNELIQTYTYEGVEAKRIFKKE
  denaturant m value: 0.83 kcal/mol/M and 0.74 kcal/mol/M
  denaturant midpoint (higher = more stable): 4.61 M and 4.77 M
  unfolding free energy: 16 kJ/mol and 14.8 kJ/mol
